Source: US20250289849A1, “PEPTIDE TO TREAT ALPHA-SYNUCLEIN AMYLOID BASED DISORDERS” (COUNCIL OF SCIENTIFIC & INDUSTRIAL RESEARCH, priority 2022, published 2025)
Where no end group is shown, it is not given here.

Target: T1, human wild-type α-synuclein (Homo sapiens, UniProt P37840)
T1 construct: made in house; host or cells: E. coli Rosetta(DE3), pT7-7 based expression vector
Assay: In vitro fibrillation assay (Thioflavin T fluorescence)
Assay type: biochemical
Details: for inhibition of α-synuclein fibrillation (reduction in ThT fluorescence, in words): FIG. 3, α-synuclein 400 μM, equimolar peptide, 37° C., observed upto 6 hr; for increase in α-synuclein fibrillation (fluorescence intensity), compared to penetratin: FIG. 4A, zoomed Y-axis of FIG. 3 data; for normalized ratio of ThT fluorescence amplitude at 5 h versus 0 h, compared with SEQ.ID.-4: FIG. 4B
Method: FIG. 1. […] The α-synuclein fibrillation was monitored using ThioflavinT (ThT), a dye that specifically binds to amyloids. The binding of ThT results in increase of its fluorescence intensity at 482 nm. Purified α-synuclein (400 μM) was incubated at 37° C. with shaking in the presence and absence of equimolar concentration of indicated peptides. Amyloid formation was determined by monitoring ThT fluorescence at different time intervals.
FIG. 3. […] The α-synuclein fibrillation was monitored using ThioflavinT (ThT) dye, which specifically binds to amyloids, with its subsequent increase in fluorescence intensity recorded at 482 nm. The purified α-synuclein (400 μM) was incubated at 37° C. with shaking, in the presence and absence of equimolar concentration of indicated peptides. Amyloid formation was determined by monitoring ThT fluorescence at different time intervals.
FIG. 4A. The inhibition of α-synuclein fibrillation in the presence of different peptides as indicated by SEQ.IDs. The data is same as in FIG. 3A except that only the enhanced (zoomed) Y-axis for α-synuclein fibrillation in the presence of peptides is shown for clarity.
FIG. 4B. The ratio of the amplitude at 5 h versus 0 h for each of the curve was calculated and normalized.
Thioflavin T (ThT) (4 mM) was added to 400 μM of purified α-synuclein with and without Cell penetrating peptides at equimolar concentration in a 96 microwell plate. The plate was incubated at 37° C. with a shaking speed of 900 rpm in linear mode in a multimode plate reader (TECAN infinite M200 PRO). Fluorescence kinetics was measured after every 15 minutes with emission wavelength of 482 nm upon excitation at 442 nm. Each experiment was repeated at least three times.

| Substance | inhibition of α-synuclein fibrillation (reduction in ThT fluorescence, in words) | increase in α-synuclein fibrillation (fluorescence intensity), compared to penetratin | normalized ratio of ThT fluorescence amplitude at 5 h versus 0 h, compared with SEQ.ID.-4 |
| --- | --- | --- | --- |
| SEQ.ID.-6: Cyclic derivative synthesized by introducing Cys residue at N-terminal and C-terminal of SEQ.ID.-4 sequence (CRQIKIWFQNRRMKWKKC; not fully specified (bridges); cysteine pairing not given here) | inhibits α-synuclein fibrillation |  |  |
| SEQ.ID.-8: shorter and cyclized derivative of SEQ.ID.-4 with an additional mutation (CKIWFANRRMKC; not fully specified (bridges); also: cyclized, mode not given here) | inhibits α-synuclein fibrillation | did not allow increase in α-synuclein fibrillation | significantly better inhibitor of fibrillation than of SEQ.ID.-4 |
| SEQ.ID.-7: shorter truncated version of SEQ.ID.-4, further cyclized (CKIWFQNRRMKC; not fully specified (bridges); also: cyclized, mode not given here) | inhibits α-synuclein fibrillation | did not allow increase in α-synuclein fibrillation | significantly better inhibitor of fibrillation than of SEQ.ID.-4 |
